In the experiment the target is truncated Bid (tBid) of cleaved Bid (cBid) 190C labeled with Alexa Fluor 488 (murine) (UniProt P70444).

One may read the Kd as the equilibrium constant for the complex coming apart. The substance “p7 fragment of Bid (from cleaved Bid 190C) (domain or fragment)” came in with a Kd of 40 nM.

Source of the values: article PMC4611711.
